Results from article PMC5418573.

Key:
[1] = target: recombinant PolB1 of Sulfolobus solfataricus (Sulfolobus solfataricus) (UniProt P26811)
[2] = target: recombinant PolB1 of Sulfolobus solfataricus (Sulfolobus solfataricus) (UniProt P26811); test: native MS; PolB1-HE complex at 4.2 μM in 50 mM ammonium acetate, nano ESI, Synapt G2S

Chain of UniProt P26811 (P26811 36-882): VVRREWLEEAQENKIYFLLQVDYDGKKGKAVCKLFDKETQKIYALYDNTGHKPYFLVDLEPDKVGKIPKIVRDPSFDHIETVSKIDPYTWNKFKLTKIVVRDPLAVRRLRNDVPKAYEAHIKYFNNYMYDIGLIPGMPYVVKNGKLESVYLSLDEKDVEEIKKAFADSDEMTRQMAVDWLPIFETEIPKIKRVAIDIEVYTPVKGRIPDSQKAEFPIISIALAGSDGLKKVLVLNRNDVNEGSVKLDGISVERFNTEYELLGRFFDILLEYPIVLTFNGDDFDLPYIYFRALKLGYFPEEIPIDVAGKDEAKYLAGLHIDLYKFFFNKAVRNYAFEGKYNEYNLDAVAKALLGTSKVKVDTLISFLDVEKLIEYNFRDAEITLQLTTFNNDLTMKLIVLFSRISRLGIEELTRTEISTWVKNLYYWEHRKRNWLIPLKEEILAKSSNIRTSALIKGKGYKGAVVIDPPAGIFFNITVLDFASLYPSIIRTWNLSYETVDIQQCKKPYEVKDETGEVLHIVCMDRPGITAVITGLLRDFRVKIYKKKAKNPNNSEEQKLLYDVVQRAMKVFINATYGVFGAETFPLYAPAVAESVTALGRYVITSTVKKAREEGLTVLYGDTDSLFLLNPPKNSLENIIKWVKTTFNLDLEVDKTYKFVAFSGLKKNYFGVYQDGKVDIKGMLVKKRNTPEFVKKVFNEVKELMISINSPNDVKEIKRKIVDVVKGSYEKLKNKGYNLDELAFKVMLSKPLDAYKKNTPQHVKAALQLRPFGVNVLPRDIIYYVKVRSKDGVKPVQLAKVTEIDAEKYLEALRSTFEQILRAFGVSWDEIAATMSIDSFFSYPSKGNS

kinetics of excision of the 3′ nucleotide (dGMP) [1] | stoichiometry N [2] | Substance
6 fold |  | PBP1ΔC, PBP1 C-terminal tail deletion mutant (from UniProt Q980X5 1-78) (domain or fragment)
 | 1 | recombinant PBP1 of Sulfolobus solfataricus (SSO0150) (from UniProt Q980X5 1-118) (natural protein)
 | 1 | recombinant PBP2 of Sulfolobus solfataricus (SSO6202) (natural protein)
